Measurements from patent US20230382948A1, “DELIVERY OF ENDOTHELIAL CELL-LADEN MICROGEL ELICITS ANGIOGENESIS IN SELF-ASSEMBLING ULTRASHORT PEPTIDE HYDROGELS” (KING ABDULLAH UNIVERSITY OF SCIENCE AND TECHNOLOGY, priority 2020, published 2023).

Key:
Type in all cases: physicochemical
SEM of microgels = settings: for Microgel surface fiber bundle thickness: SEM
Protocol: The surface topography of the microgels was visualized using a FEI Magellan XHR Scanning Electron Microscope with an accelerating voltage of 3 kV. The SEM samples were prepared by dehydrating the peptide microgels in a gradually increasing ethanol concentration. The dehydrated microgels were then dried in a Leica EM CPD300. The dried peptides were sputter coated with 5 nm […] before imaging.

[1] = Peptide gelation study (vial inversion method); settings: for Time to form hydrogel: 4 mg/mL, room temperature, in the presence of PBS
Protocol: The preweighed (as per the required final concentration) peptide powder was dissolved in 0.9 mL of Milli-Q® water in a glass vial. The solution was vortexed for 5-10 s to obtain a clear and homogeneous solution. To this peptide solution, 0.1 mL of PBS buffer (10×, w/o Ca^2+ and Mg^2+) was added. To ensure a homogeneous distribution of buffer in the solution, the glass vial was further vortexed for 2-3 s. The glass vial was kept undisturbed on the bench, and hydrogel formation was observed using the vial inversion method, as shown in FIG. 9. The pH of the solutions of IVFK (SEQ ID NO. 1) and IVZK (SEQ ID NO. 2) was 5.57 and 5.48 at a 5 mg/mL concentration, respectively. After the addition of PBS, the pH changed to 7.7 and 7.6 for IVFK (SEQ ID NO. 1) and IVZK (SEQ ID NO. 2), respectively. The pH of the Milli-Q® water and phosphate buffer used was 6.7 and 7.4, respectively.

[2] = Transmission electron microscopy of nanofibers; settings: TEM
Protocol: TEM imaging was performed using a FEI Tecnai G2 Spirit Twin instrument with a 120 kV emission gun. One drop of diluted peptide hydrogel in water was placed on a carbon-coated copper grid that had been treated with glow discharge plasma prior to being used. The drop was kept on the grid for 10 min before being blotted using filter paper. The grid was stained with 2% uranyl acetate for 30 s to get better contrast. The grid was then rinsed in water to remove uranyl excess and dried for at least 1 day before imaging. The average diameter of the nanofibers was measure using hnageJ and Origin software from 100 fibers.

With “Ac-Ile-Val-Phe-Lys-NH2 (Ac-IVFK-NH2) [self-assembling ultrashort tetrapeptide, forms hydrogels and microgels]” the “Microgel surface fiber bundle thickness” value (SEM of microgels) was “around 20 nm”, the “Critical gelation concentration in bulky hydrogels” value [1] was 0.4 wt % and the “Time to form hydrogel” value [1] was 10 min. For the same substance, the Single-filament thickness [2] was “around 3 nm”.
With “Ac-Ile-Val-Cha-Lys-NH2 (IVXK; HELM PEPTIDE1{[ac].I.V.[Cha].K.[am]}$$$$V2.0; SMILES CC[C@H](C)[C@H](NC(C)=O)C(=O)N[C@H](C(=O)N[C@@H](CC1CCCCC1)C(=O)N[C@@H](CCCCN)C(N)=O)C(C)C) [IVZK, self-assembling ultrashort tetrapeptide, Z = cyclohexylalanine, forms hydrogels and microgels]” the “Microgel stability through SEM sample preparation” value (SEM of microgels; 1.5 wt %, critical point drier) was “stable enough to maintain their 3D spherical structure”, the “Microgel surface fiber bundle thickness” value (SEM of microgels) was “around 20 nm” and the “Critical gelation concentration in bulky hydrogels” value [1] was 0.3 wt %. The “Time to form hydrogel” value [1] was 10 min and the Single-filament thickness [2] was “around 3 nm”.
